Measured values reported in patent US20210060171A1 (DUKE UNIVERSITY, published 2021).
No end group written: not given here.

Columns and labels:
mouse serum albumin = biological target: T1, mouse serum albumin (mouse, UniProt P07724 25-608); experiment: isothermal titration calorimetry, MSA injected into ABD-Dox in PBS at 37 C, independent binding site model
T1 construct: also called MSA

human serum albumin = biological target: T2, human serum albumin (human, UniProt P02768 25-609); experiment: isothermal titration calorimetry, HSA injected into ABD-Dox in PBS at 37 C, independent binding site model
T2 construct: also called HSA; HAS

T1 sequence (P07724 25-608 limits assumed): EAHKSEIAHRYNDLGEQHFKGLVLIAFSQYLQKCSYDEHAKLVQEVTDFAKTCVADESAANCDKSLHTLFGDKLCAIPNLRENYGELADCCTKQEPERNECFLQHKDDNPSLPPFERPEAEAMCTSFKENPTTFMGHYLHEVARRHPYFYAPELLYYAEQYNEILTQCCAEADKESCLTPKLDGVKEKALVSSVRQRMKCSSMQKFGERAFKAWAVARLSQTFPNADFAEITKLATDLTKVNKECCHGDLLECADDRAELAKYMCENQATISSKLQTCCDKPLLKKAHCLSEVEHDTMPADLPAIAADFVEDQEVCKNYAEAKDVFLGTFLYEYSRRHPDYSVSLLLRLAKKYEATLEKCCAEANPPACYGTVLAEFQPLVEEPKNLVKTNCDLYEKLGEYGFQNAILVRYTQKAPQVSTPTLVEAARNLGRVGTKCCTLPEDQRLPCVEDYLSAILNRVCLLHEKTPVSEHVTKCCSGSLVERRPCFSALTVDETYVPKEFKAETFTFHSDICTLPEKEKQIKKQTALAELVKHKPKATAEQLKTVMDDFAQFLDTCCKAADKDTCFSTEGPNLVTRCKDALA

B1: ABD-Dox (ABD-(CGG)4-Dox with 1 and 2 conjugated Dox molecules) (peptide)
chain: GLAEAKVLANRELDKYGVSDYYKNLINNAKTVEGVKALIDEILAALPCGGCGGCGGCGG
modifications: also: 1-2 doxorubicin via EMCH (maleimide, hydrazone) on Cys of C-terminal (CGG)4
notes: Product of sortase A cleavage of KEKE-ELP160-srt-ABD-(CGG)4-Dox; also called AlBiPeD
B1 gave a Kd (mouse serum albumin) of 73.8 nM, a ΔH (mouse serum albumin) of -4.45 kcal/mol and a ΔS (mouse serum albumin) of 76.6 Jmol^-1K^-1. It also gave a Kd (human serum albumin) of 125 nM, a ΔH (human serum albumin) of -6.72 kcal/mol and a ΔS (human serum albumin) of 41.5 Jmol^-1K^-1.
